What was measured:
[1] = biological target: T1, Human DLL3 (hDLL3) antigen (human, UniProt Q9NYJ7 27-492); experiment: SPR, Biacore 8K, antibody captured on protein G chip, hDLL3 as analyte, multi-cycle
T1 construct: Soluble analyte in SPR; also called hDLL3 protein; soluble target antigen DLL3
T1 sequence: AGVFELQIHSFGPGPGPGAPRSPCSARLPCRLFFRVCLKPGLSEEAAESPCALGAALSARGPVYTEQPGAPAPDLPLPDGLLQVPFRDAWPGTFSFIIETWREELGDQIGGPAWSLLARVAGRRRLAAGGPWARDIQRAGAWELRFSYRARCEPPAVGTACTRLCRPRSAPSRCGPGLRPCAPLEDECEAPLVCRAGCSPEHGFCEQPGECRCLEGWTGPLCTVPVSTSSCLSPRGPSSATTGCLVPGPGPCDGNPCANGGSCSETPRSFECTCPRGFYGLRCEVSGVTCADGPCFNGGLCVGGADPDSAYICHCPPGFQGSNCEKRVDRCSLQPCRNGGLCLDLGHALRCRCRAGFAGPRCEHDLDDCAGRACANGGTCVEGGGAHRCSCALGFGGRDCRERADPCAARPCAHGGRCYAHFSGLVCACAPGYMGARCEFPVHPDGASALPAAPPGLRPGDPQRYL
Method: The Biacore SPR 8K machine was used for kinetics binding analysis. The sensor surface of a protein G chip (series s Cat #29179315) was used to capture the ligands. 2 μg/ml of purified anti-DLL3 antibody was diluted in running buffer (0.01M HEPES, 0.15 NaCl, 3 mM EDTA, 0.005% Tween-20). The diluted antibody was then injected at a flow rate of 10 μL/min for 60 seconds. Human DLL3 (hDLL3) antigen was diluted in the same running buffer to 6 concentrations (30, 10, 3.33, 1.11, 0.37 and 0 nM). hDLL3 was then injected on all channels (with each channel having its own reference point) at a flow rate of 30 uL/min for an association phase of 300 seconds, followed by 600 seconds of dissociation. 6 cycles of running analyte were repeated according to analyte concentrations in ascending order. After each cycle of interaction analysis, the sensor chip surface was regenerated completely with Glycine-HCL pH 1.5 at a flow rate of […] for 60 s. The binding of the anti-DLL3 antibody and hDLL3 protein was analyzed by multi-cycle method.

[2] = biological target: T2, Cynomolgus macaque (cyno) DLL3 expressed on 293H cells (cynomolgus macaque, UniProt Q9NYJ7 27-618 (human entry)); experiment: flow cytometry on 293H cells expressing cyno DLL3, Alexa 647 anti-human IgG1 secondary, 0.6 to 200 nM
T2 construct: also called Cyno DLL3 cell; cyno DLL3 ORF-GFP
T2 chain: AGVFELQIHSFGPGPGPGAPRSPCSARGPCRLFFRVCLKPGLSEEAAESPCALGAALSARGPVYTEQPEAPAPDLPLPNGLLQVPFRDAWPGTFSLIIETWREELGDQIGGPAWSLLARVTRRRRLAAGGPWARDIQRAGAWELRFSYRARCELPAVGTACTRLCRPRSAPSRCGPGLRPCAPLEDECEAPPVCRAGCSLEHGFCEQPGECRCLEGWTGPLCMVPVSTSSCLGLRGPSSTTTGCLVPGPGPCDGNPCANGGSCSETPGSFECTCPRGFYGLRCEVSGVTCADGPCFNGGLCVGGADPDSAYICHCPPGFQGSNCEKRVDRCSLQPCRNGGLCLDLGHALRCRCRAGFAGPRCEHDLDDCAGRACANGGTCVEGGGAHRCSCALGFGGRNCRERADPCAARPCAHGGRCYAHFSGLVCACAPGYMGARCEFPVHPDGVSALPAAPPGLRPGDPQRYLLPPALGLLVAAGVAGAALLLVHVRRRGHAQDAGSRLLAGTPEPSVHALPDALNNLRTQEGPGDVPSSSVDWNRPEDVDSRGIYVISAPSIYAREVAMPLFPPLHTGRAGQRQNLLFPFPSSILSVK
Method: (§1) Human DLL3 or cynomolgus macaque (cyno) DLL3 expressing cell lines were established by transfecting 293H cells with human DLL3 ORF-GFP or cyno DLL3 ORF-GFP plasmids and selecting stable single clone. A dose response curve for the anti-DLL3 mAb-1 binding to 293H cells expressing either human DLL3 or cyno DLL3 was generated by flow cytometry. Cells were incubated with increasing concentrations of anti-DLL3 mAb-1 in the range of 0.6 to 200 nM. Cells were washed then incubated with a secondary antibody (Alexa 647 conjugated anti-human IgG1) to measure the amount of antibody bound to the 293H cells. A dose response curve was fitted from the data using the non-linear regression function in GraphPad Prism version 8. Half-maximal concentration (EC₅₀) value was calculated from the dose response curve.

[3] = biological target: T3, Human DLL3 expressed on 293H cells (human, UniProt Q9NYJ7 27-618); experiment: flow cytometry on 293H cells expressing human DLL3, Alexa 647 anti-human IgG1 secondary, 0.6 to 200 nM
T3 construct: also called Human DLL3 cell; human DLL3 ORF-GFP
T3 sequence: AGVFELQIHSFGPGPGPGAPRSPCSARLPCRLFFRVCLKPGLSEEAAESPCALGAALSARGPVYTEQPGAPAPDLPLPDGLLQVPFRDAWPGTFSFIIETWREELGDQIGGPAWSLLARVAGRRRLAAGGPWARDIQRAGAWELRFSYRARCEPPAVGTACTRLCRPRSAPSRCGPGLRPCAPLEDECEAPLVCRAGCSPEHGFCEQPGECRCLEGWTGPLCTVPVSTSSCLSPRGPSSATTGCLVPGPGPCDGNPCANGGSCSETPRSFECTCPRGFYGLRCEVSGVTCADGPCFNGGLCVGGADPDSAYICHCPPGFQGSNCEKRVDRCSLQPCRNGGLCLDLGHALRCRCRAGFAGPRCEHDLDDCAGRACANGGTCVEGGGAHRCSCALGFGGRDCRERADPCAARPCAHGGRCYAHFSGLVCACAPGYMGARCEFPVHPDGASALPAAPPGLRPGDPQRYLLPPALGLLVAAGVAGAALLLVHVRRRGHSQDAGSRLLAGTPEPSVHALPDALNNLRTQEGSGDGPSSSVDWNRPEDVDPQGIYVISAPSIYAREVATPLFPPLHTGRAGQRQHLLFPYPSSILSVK
Method: as §1

Kd [1]: 58.8 nM
koff [1]: 0.0137 s⁻¹
kon [1]: 233000 M⁻¹ s⁻¹
EC50 [2]: 10.4 nM
EC50 [3]: 15.6 nM
B1: DLL3-mAb-1 (antibody, human IgG1, kappa, V domains shown)
VH: QVQLQESGPGLVKPSQTLSLTCTVSGDSISSDGYYWSWIRQHPGKGLEWIGYIYYSGNTYYNPSLKSRVTISVDTSKNQFSLKLTSVTAADTAIYYCAIDTASALAYWGQGTLVTVSS
VL: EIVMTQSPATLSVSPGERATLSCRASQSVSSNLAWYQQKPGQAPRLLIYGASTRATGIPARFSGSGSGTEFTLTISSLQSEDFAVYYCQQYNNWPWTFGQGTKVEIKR
notes: It was captured on a protein G chip and detected with anti-human IgG1, and it is a fully human antibody with a fixed human kappa light chain; also called anti-DLL3 mAb-1; anti-DLL3 antibody DLL3-mAb-1

Reference: patent publication US20260061051A1 (JUNO THERAPEUTICS, published 2026)
